This note sets out measurements from the nanobody polyreactivity screen of Harvey et al. (2022).

This data set is described as follows: yeast display, Sf9 membrane polyspecificity reagent, FACS + sequencing; frameworks hold sequencing errors. In short, it runs like this:
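Nanobodies came from a synthetic yeast display library in Saccharomyces cerevisiae BJ5465, induced with galactose for 36–48 hours and stained for 1 hour at 4 °C with 10% biotinylated, detergent-solubilized Sf9 membrane reagent. Cells were enriched on streptavidin microbeads and then FACS-sorted, with low and high (top ~1%) gates set on anti-HA fluorescence for expression and streptavidin fluorescence for reagent binding. Each polyreactivity label reflects the gate a clone came from. Genes were amplified by colony PCR, sequenced by MiSeq 2 × 250 and filtered by CDR length.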
For the sequence “QVQLVESGGGLVQAGGSLRLSCAASGRIFIGYAMGWYRQAPGKERELVAAISWGGGSTFYADSVKGRFTISRDNAKNTVYLQMNSLKPEDTAVYYCNKVYRQRVVKGGYWGQGTQVTVSS”, the “polyreactivity (PSR sort gate)” value is “high polyreactivity”.
Then “QVQLVESGGGLVQAGGSLRLSCAASGRIFIINAMGWYRQAPGKERELVAAITGTGSTYYADSVKGRFTISRDNAKNTVYLQMNSLKPEDTAVYYCAADVSYTYYGFWYDEYYWGQGTQVTVSS”, with “high polyreactivity”.
The same measure for “QVQLVESGGGLVQAGGSLRLSCAASGRIFILYGMGWYRQAPGKERELVAAIRWSGASTYYADSVKGRFTISRDNAKNTVYLQMNSLKPEDTAVYYCAATVGFTPSFWYSSKYDYWGQGTQVTVSS”: “low polyreactivity”; for “QVQLVESGGGLVQAGGSLRLSCAASGRIFINNAMGWYRQAPGKERELVAAISSRGGSTYYADSVKGRFTISRDNAKKTVYLQMNSLKPEDTAVYYCAVDVYEPRYRRPFHHDYWGQGTQVTVSS”: “low polyreactivity”.
On to “QVQLVESGGGLVQAGGSLRLSCAASGRIFIPYAMGWYRQAPGKERELVAAISSSGGSTYYADSVKGRFTISRDTAKNTVYLQMNSLKPEDTAVYYCAARLYWGYAYETYSSLFEYDYWGQGTQVTVSS”, for which the “polyreactivity (PSR sort gate)” value was “low polyreactivity”.
The same measure for “QVQLVESGGGLVQAGGSLRLSCAASGRIFIRNAMGWYRQAPGKERELVAAITQSGGSTYYADSVKGRFSISRVYAKNTVYLQMNSLKPEDTAVYYCNAVRYNCVGYDYWGQGTQVTVSS”: “high polyreactivity”; for “QVQLVESGGGLVQAGGSLRLSCAASGRIFIRNDMGWYRQAPGKERELVAVITRSGGRTYYADSVKGRFTISRDNAKNTVYLQMHSLKPEDTAVYSCAKRQAFKQAPYEYWGQGTQVTVSS”: “low polyreactivity”; for “QVQLVESGGGLVQAGGSLRLSCAASGRIFISNAKGWYRQAPGKERELVAAITWIGDRTYYADSVKGRFTISRDNAKNTVYLQMNSLKPEDTAVYYCNRVTSRVSGRYSYDYWGQGTQVTVSS”: “high polyreactivity”.
Then “QVQLVESGGGLVQAGGSLRLSCAASGRIFIWYGMGCYRQAPGKERELVADISSTGSTNYADSVKGRFTISRDNAKNTVYLQMNSLKPEDTAVYYCAADPETPYYTTYDYDYWGQGTQVTVSS”, with “low polyreactivity”.
The same measure for “QVQLVESGGGLVQAGGSLRLSCAASGRIFIYNAKGWYRQAPGKERELVAAITSDGTTNYADSVKGRFTISRDNAKNTVYLQMNSLKPEDTAVYYCAVDPFGSLVTYDYWGQGTQVTVSS”: “low polyreactivity”; for “QVQLVESGGGLVQAGGSLRLSCAASGRIFIYYAMGWYRQAPGKERELVAAITSGGSTIYADSVKGRFTIPRDNAKNTVYLQMNSLKPEDTAVYDCAARYVRSQTRFDYWGQGTQVTVSS”: “high polyreactivity”.
Regarding “QVQLVESGGGLVQAGGSLRLSCAASGRIFKAYAMGWYRQAPGKERELVAVITGTGRTTYADSVKGRFTISRDNAKNTVYLQMNSLKPEDTAVYYCNVRWYYKGDYWGQGTLVTVSS”, the “polyreactivity (PSR sort gate)” value is listed as “high polyreactivity”.
Consider “QVQLVESGGGLVQAGGSLRLSCAASGRIFKCYAMGWYRQAPGKERELVAAISSGGRTYYADSVKGRFTISRDNAKNTVYLQMNSLKPEDTAVYYCAALQRTGPYAGSSGYWGQGSQVTVSS”, for which the “polyreactivity (PSR sort gate)” value is given as “high polyreactivity”.
Then “QVQLVESGGGLVQAGGSLRLSCAASGRIFKDNAMGWYRQAPGKERELVATIDSGGDTNYADSVKGRFTISRDNAKNTVYLQMNSLKPEDTAVYYCNRDSRVLEGDYWGQGTQVTVSS”, with “low polyreactivity”.
Regarding “QVQLVESGGGLVQAGGSLRLSCAASGRIFKGYAMGWYRQAPGKESELVAAITWRGGTTYYADSVKGRFTISRDNAKNTVYLQMNSLKPEDTAVYYCARARPTGYNYWGQGTQVTVSS”, the “polyreactivity (PSR sort gate)” value is reported as “high polyreactivity”.
The same measure for “QVQLVESGGGLVQAGGSLRLSCAASGRIFKINAMGWYRQAPGKERELVAGISGSGSDTYYSDSVKGRFTISRDNAKNTVYLQMNSLKPEDTAVYYCAAVAYDWALFYYWGQGTQVTVSS”: “low polyreactivity”; for “QVQLVESGGGLVQAGGSLRLSCAASGRIFKINAMGWYRQAPGKERELVATITRDGRTYYADSVKGRFTISRDNAKNTVYLQMNSLKPEDTAVYYCNVRRAFSGWRGYDYWGQGTQVTVSS”: “high polyreactivity”; for “QVQLVESGGGLVQAGGSLRLSCAASGRIFKLYAMGWYRQAPGKERELVASITWGGGSTNYADSVKGRFTISRDNAKNTVYLQMNSLKPEDTAVYYCAAVYSKYAVFWEYDYWGQGTQVTVSS”: “low polyreactivity”.
The same measure for “QVQLVESGGGLVQAGGSLRLSCAASGRIFKLYAMGWYRQAPGKERELVATIRYSGGSTYYADSVKGRFTISRDNAKNSVYLHMNSLKPEDTAVYYCNYVSRRQYFEYDYWGQGTQVTVSS”: “low polyreactivity”; for “QVQLVESGGGLVQAGGSLRLSCAASGRIFKLYAMGWYRQAPGKESELVAAITRRGGSTSYADSVKGRFTISRVNAKNTVYLQMNSLKPEDTSVYYCAASLSPWFTSYYLPYDLGYWGQGTQVTVSS”: “high polyreactivity”; for “QVQLVESGGGLVQAGGSLRLSCAASGRIFKNNTMGWYRQAPGKERELVAAISCSGGSTYYADSVKGRFTISRDNAKNTVYLQINSLKPEDTAVYYCATTYEPNGGIEDDYWGQGTQVTVSS”: “low polyreactivity”.
Then “QVQLVESGGGLVQAGGSLRLSCAASGRIFKNYAMGWYRQAPGKERELVAAITWSVGSTYYADSVKGRFTISRDNAKNTVYLQMNSLKPEDTAVYYCAARRSDFRGAKDGYYYWGQGTQVTVSS”, with “low polyreactivity”.
With “QVQLVESGGGLVQAGGSLRLSCAASGRIFKPYAMGWYRQAPGKERELVASISRRGGSTYYADSVKGRFTISRDNAKNTVYLQMNSLKPEDTAVYDCNASGTYISLGYDYWGQGTQVTVSS”, the “polyreactivity (PSR sort gate)” value is “high polyreactivity”.
Then “QVQLVESGGGLVQAGGSLRLSCAASGRIFKRNAMGCYRQAPGKERELVATIDWSGGSTYYADSVKGRFTISRDNAKNTVYLQMNSLKPEDTAVYYCAAASGRWNKYGYWGQGTQVTVSS”, with “low polyreactivity”; and “QVQLVESGGGLVQAGGSLRLSCAASGRIFKRNAMGWYRQAPGKERELVAAITGNVGSTYYADSVKGRFTISRDNAKNTVYLQMNSLKPEDTAVYYCAAYVQYSSIVGYGYWGQGTQVTVSS”, with “high polyreactivity”.
The same measure for “QVQLVESGGGLVQAGGSLRLSCAASGRIFKRNTMGWYRQAPGKEMELVAAITYSGITYYADSVKGRFTISRDNAKNTVYLQMNSLKPEDTAVYYCAKVLYPIGSPRFEFWGQGTQVTVSS”: “low polyreactivity”; for “QVQLVESGGGLVQAGGSLRLSCAASGRIFKRYVMGWYRKAPGKERELVAAITWRGGTYYADSVKGRFTISRDNAKNTVYLQMNSLKPEDTAVYYCAADTYFSGAGGQAYQYDYWGLGTQVTVSS”: “high polyreactivity”; for “QVQLVESGGGLVQAGGSLRLSCAASGRIFKSYAMGWYRQAPGIERELVAAIRSGGSTYYADSVKGRFTISRDNAKNTVYLQMNSLKPEYTAVYYCNRVTRTWKVTYHSWGQGTQVTVSS”: “high polyreactivity”.
The same measure for “QVQLVESGGGLVQAGGSLRLSCAASGRIFKSYDIGWYRQAPGKEMELVSAISQSGGGTYYADSVKGRFTISRDNAKNTVYLQMNSLKPEDTAVYYCAAYRRVNRYQKIDNYWGQGTQVTVSS”: “high polyreactivity”; for “QVQLVESGGGLVQAGGSLRLSCAASGRIFKTNAMGWYRQAPGKERELVAAISKRGGRTYYADSVKGRFTISRDNAKNTVYLQMNSLKPEDTAVYYCATRYSGYSLGDYWGQGTQVTVSS”: “high polyreactivity”; for “QVQLVESGGGLVQAGGSLRLSCAASGRIFKVYTMGWYRQAPGKERELVATITRSGTSTYYADSVKGRFTISRDIAKNTVYLQMNSLKPEDTAVYYCARLVGYKFSYDYWGQGTQVTVSS”: “high polyreactivity”.
“QVQLVESGGGLVQAGGSLRLSCAASGRIFKYNAMGWYRQAPGKERELVAAISGRGVSTYYADSVKGRFTISRDNAKNPVYLQMNSLKPEDTAVYYCAAETVHGSADFDDWGQGTQVTVSS”: the “polyreactivity (PSR sort gate)” value is recorded as “low polyreactivity”.
On to “QVQLVESGGGLVQAGGSLRLSCAASGRIFKYNAMGWYRQAPGKERELVAVITSGGSTNYADSVKGRFTISRDNAKNTVYLQMNSLKPEDTAVYYCNARRYSTYDYWGQGTQVTVSS”, for which the “polyreactivity (PSR sort gate)” value is “high polyreactivity”.
For “QVQLVESGGGLVQAGGSLRLSCAASGRIFKYNAMGWYRQATGKERELVAAISSSGGSTYYADSVKGRFTISRDNANNTVYLQMNSLKPEDTAVYYCAARYNSRVYRYDYWGQGTQVTVSS”, the “polyreactivity (PSR sort gate)” value was “high polyreactivity”.
For “QVQLVESGGGLVQAGGSLRLSCAASGRIFKYYAMGWYRQAPGKERELVAAITSAGNTKYADSVKGRFTISRDNAKNTVYLQMNSLKPEDTAVYYCARGRYYVIGSYDYWGQGTQVTVSS”, the “polyreactivity (PSR sort gate)” value is “high polyreactivity”.
The same measure for “QVQLVESGGGLVQAGGSLRLSCAASGRIFKYYAMGWYRQAPWKERELVDTIRRSGGSTYYADSVKGRFTISRDNAKNTVYLQMNSLKPEDTAVYYCNARYLFLQAWLRPYRSDYWGQVTQVTVSS”: “high polyreactivity”; for “QVQLVESGGGLVQAGGSLRLSCAASGRIFLFYAMGWYRQAPGKERELVASITSSGGDTSYYADSVKGRFTISLDNAKNTVYLQMNSLKPEDNAVYYCASRPWTSWRYYYWGQGTQVTVSS”: “high polyreactivity”.
As to “QVQLVESGGGLVQAGGSLRLSCAASGRIFLGYAMGRYRPARGKERELVAAISTSGGSTYYADSVKGRFTISRDNAKNTVYLQMNSLKPEDTAVYYCAARNVRTYVTGVDYDYWGQGTQVTVSS”, the “polyreactivity (PSR sort gate)” value is “high polyreactivity”.
As to “QVQLVESGGGLVQAGGSLRLSCAASGRIFLINAMGWYRQAPGKERELVAAITSSGGSTYYADSVKGRFTISRDNAKNTVYLQMNSLKPEDTAVYYCATRSYRGRPYNYWGQGTQVTVSS”, the “polyreactivity (PSR sort gate)” value is given as “high polyreactivity”.
The same measure for “QVQLVESGGGLVQAGGSLRLSCAASGRIFLIYTMGWYRQAPGKERELVASITFRSGSTYYADSVKGRFTISRDNAKNTVYLQMNSLKPEDTAVYYCAADRGVLNQFDYWGQGTQVTVSS”: “low polyreactivity”; for “QVQLVESGGGLVQAGGSLRLSCAASGRIFLKYTMGWYRQAPGKERELVAAISRGGSTYYADSVKGRFTISRDNAKNTVYLQMNSLKPEDTAVYYCAATSYRRTGYNYWGQGTQVTVSS”: “high polyreactivity”.
